Assay results taken from paper PMC11573672, “Analysis of the structure and interactions of the SARS-CoV-2 ORF7b accessory protein” (Proceedings of the National Academy of Sciences of the …, 2024).

Target: T1, SARS-CoV-2 ORF7b accessory protein, full length, with C-terminal SA linker and Strep-tag II (SARS-CoV-2, UniProt P0DTD8 1-43)
T1 construct: ORF7b of SARS-CoV-2, 43 residues, full length; NMR samples are isotope labelled on chosen amino acids (Leu, Phe and others); Forms heterogeneous multimers; no defined number of copies; also called ORF7b-ST; ORF7b^L:F; not shown: Strep-tag II, C-terminal, kept
T1 chain: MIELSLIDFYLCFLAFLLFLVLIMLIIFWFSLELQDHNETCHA
Assay: solid-state NMR (2D hChH reverse-MIRROR, intermolecular polarization transfer)
Conditions: both partners purified

B1: E-cadherin transmembrane domain (E641-R673), purified, Leu-labelled, for solid-state NMR (domain or fragment, human, UniProt P12830-2 641-673, looked up)
chain: EAGLQIPAILGILGGILALLILILLLLLFLRRR
notes: also called E-cadTM; E-cadTM^L; source: wheat-germ cell-free synthesis, purified
B1: binds.
